Results: the supplement of paper PMC10126150
± gives the standard deviation of the averaged measurements.

system: ATP; experiment: switch fluorescence ratio, 500 uM ATP over buffer (Cy3 cluster intensity, sum of 5 cycles each) (fold (ratio)); higher = stronger signal-on switching upon ATP binding; sequences stand for … in TCGTCGGCAGCGTCAGATGTGTATAAGAGACAGTTTTTTTTTTTTTTTTTTTTTTTTT…TC; conditions: aptamer strand: ATP DNA aptamer (quencher-CACCTGGGGGAGTATTGCGGAGGAAGG + anchor), 100 nM annealed; ATP concentration: 500 uM
Summary of the method: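 For every switch-domain sequence, the fluorescence ratio is the mean of per-cluster values, each being summed target-cycle Cy3 intensity over summed buffer-cycle Cy3 intensity. Clusters outside 100-1000 RFU were excluded. On a modified Illumina MiSeq flow-cell, the Cy3-labelled switching-strand clusters were annealed to 100 nM quencher-labelled ATP aptamer, imaged in selection buffer and then after 15 min with 500 uM ATP at 22 °C. Five such cycles were run, with NaOH stripping and re-annealing between them.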
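Further: ATP exposure 15 min at 22 °C before imaging.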

Row | Sequence | switch fluorescence ratio
1 | CAGAGAAAGG | 0.997 ± 0.014
2 | ATTAGAAATG | 0.9973 ± 0.0062
3 | ATAGGAACGT | 1.08 ± 0.1
4 | TACCTGGTTA | 0.999 ± 0.049
5 | CATTGTAAGT | 1 ± 0.025
6 | GAACTGTATG | 1.05 ± 0.056
7 | TCCGGAGGGA | 1.04 ± 0.089
8 | GCAGCTGTAT | 1.08 ± 0.014
9 | GGGGCCCCTC | 1.04 ± 0.092
10 | ACTTGATCCC | 1.02 ± 0.043
11 | AGGGGGCGAT | 1.01 ± 0.039
12 | TGATGTTAGT | 1.01 ± 0.024
13 | ATCGAATTTT | 1 ± 0.061
14 | GTAGGGGCCC | 1.02 ± 0.032
15 | CGTTTGTTGG | 0.984 ± 0.028
16 | GCTGAGGGGA | 1.03 ± 0.049
17 | GATTTGAAGG | 1.01 ± 0.035
18 | AGGGCCGGGC | 0.962 ± 0.044
19 | ATTAATCGAC | 1.03 ± 0.092
20 | GATCCTTTAT | 0.979 ± 0.02
21 | GTGGGACGAG | 0.971 ± 0.018
22 | AGGACAGCGC | 1.024 ± 0.008
23 | GTGCTCTTAC | 1.11 ± 0.014

Row | Sequence | switch fluorescence ratio
24 | CACTAGTCTG | 1.01 ± 0.033
25 | CAAAGTTAAC | 0.949 ± 0.0098
26 | TGGGGGTTCT | 1.02 ± 0.057
27 | CGGGGGCCCT | 1.01 ± 0.034
28 | TTCTGGGGGT | 0.999 ± 0.051
29 | AATATGATTC | 0.992 ± 0.025
30 | CGTTCAGCT | 1.01 ± 0.035
31 | TGGTCTTCAT | 1 ± 0.022
32 | CGTTTTTCTG | 0.968 ± 0.013
33 | CGGTGAGTAG | 0.9876 ± 0.0092
34 | CTGGGGTTTT | 0.991 ± 0.032
35 | GTTTTTGGCG | 0.94 ± 0.16
36 | AGAAGAGTAA | 1.009 ± 0.0091
37 | ATTTGAATA | 0.984 ± 0.022
38 | CGATGTGAGA | 1.04 ± 0.022
39 | TGCAAATTTT | 1 ± 0.036
40 | CGGCTGGTCA | 0.984 ± 0.021
41 | ATCGGTGAAG | 0.9925 ± 0.0058
42 | GCTTCTATTG | 1.001 ± 0.00067
43 | TGAAGTAGGG | 1.05 ± 0.12
44 | GTGATGCTTG | 0.998 ± 0.037
45 | AGGGGCGAGC | 0.9616 ± 0.005
46 | CGGGGATGGG | 0.992 ± 0.022

Row | Sequence | switch fluorescence ratio
47 | CGAAGGTTGC | 1.01 ± 0.04
48 | CAACTCAGTA | 0.988 ± 0.016
49 | TTTATTGGTT | 1.07 ± 0.1
50 | TTTTACGGAT | 1.01 ± 0.012
51 | AATACTGAGC | 1.04 ± 0.053
52 | AGGTTGTACT | 0.968 ± 0.016
53 | TTGAGTGTTA | 1.01 ± 0.011
54 | TTTTAGGCTT | 1.01 ± 0.026
55 | AATGGATACG | 1.05 ± 0.019
56 | CGATATCGAG | 0.98 ± 0.051
57 | CCGTAGCGTT | 6.12 ± 1.5
58 | GATTTTTGGA | 0.968 ± 0.03
59 | TCAAAATTTC | 1.01 ± 0.0072
60 | TGGGTCTTTT | 1.01 ± 0.054
61 | ATGCAGCATG | 1.021 ± 0.0038
62 | GAATGGGGTT | 0.98 ± 0.026
63 | CTATTACGG | 1.04 ± 0.075
64 | TCCTTTTTTA | 1.01 ± 0.015
65 | CTCGTGGTTT | 0.981 ± 0.024
66 | GGTGTCTGGT | 1.001 ± 0.0061
67 | ATTCTTCCGC | 3.88 ± 0.16
68 | TTATGTTTAG | 0.976 ± 0.045
69 | TGTTACAGAG | 1.01 ± 0.052

Row | Sequence | switch fluorescence ratio
70 | AGGTTAATAG | 0.996 ± 0.012
71 | TCGGTTTGCG | 1.01 ± 0.022
72 | TGCCAGTACG | 1.064 ± 0.0044
73 | ATAGTCTACG | 1.02 ± 0.042
74 | GTGTTAGCTG | 1.02 ± 0.028
75 | TATTTCTTGG | 0.968 ± 0.014
76 | AACGTTATCT | 1.04 ± 0.015
77 | ATGTATAGTT | 1.02 ± 0.017
78 | GATTTTTGAG | 0.99 ± 0.017
79 | TTAGTAAAGG | 1.01 ± 0.041
80 | TTATTCCTAT | 1.02 ± 0.021
81 | TTTTTGCAAT | 1.43 ± 0.24
82 | GATTTGATTG | 1.002 ± 0.0033
83 | CGGAAAATTT | 1.01 ± 0.075
84 | GGAGTTTTGT | 0.9614 ± 0.0087
85 | AACAGCCACA | 1.11 ± 0.028
86 | GACGACGTGC | 2.33 ± 0.44
87 | TTGGTTGACA | 0.9641 ± 0.0094
88 | ATAGTGGGAG | 0.992 ± 0.04
89 | TGGGAGTTGT | 0.989 ± 0.011
90 | CCTACGGGCC | 2.16 ± 0.12
91 | CGTTATACAG | 1.01 ± 0.026
92 | GGAATAGTGG | 0.982 ± 0.025

Row | Sequence | switch fluorescence ratio
93 | GCGGCACGGG | 1.02 ± 0.054
94 | ATAGCCCGCT | 1.03 ± 0.0014
95 | GATTTTTGGG | 1.01 ± 0.047
96 | GGTGATGAAA | 0.998 ± 0.025
97 | AGGTGGTTG | 0.998 ± 0.028
98 | AAGATGTCGT | 1.022 ± 0.0014
99 | TTCACGGCCT | 1.03 ± 0.018
100 | ACGTCTGGCT | 0.996 ± 0.028
101 | GTTTGCACTG | 1.04 ± 0.021
102 | ACAGGGGTCT | 1.06 ± 0.024
103 | GGTTCAGAGA | 0.973 ± 0.033
104 | AAGTATTATT | 0.983 ± 0.03
105 | CAAGAATGTA | 0.973 ± 0.024
106 | TTTTCAATCG | 1.01 ± 0.045
107 | TATCTGGGTC | 1.02 ± 0.067
108 | AAAACGGAGA | 1.02 ± 0.014
109 | TAGCCTAGGT | 1.02 ± 0.017
110 | TTTTTCTGGT | 1.01 ± 0.075
111 | TCGTTTTTTG | 0.984 ± 0.016
112 | AGGGGTTTAT | 0.988 ± 0.021
113 | AGTAGATTCC | 1.042 ± 0.01
114 | TAGTTATGTT | 0.96389 ± 0.00072
115 | GTGTATAGGC | 1.09 ± 0.038

Row | Sequence | switch fluorescence ratio
116 | ATTATGCTG | 0.98 ± 0.05
117 | AGTTGAGCTT | 0.987 ± 0.013
118 | ACAAGGTGTT | 1.2 ± 0.022
119 | GCACCAAGAA | 1.03 ± 0.014
120 | GCCGTAACGG | 0.982 ± 0.014
121 | GGGTGTTGTC | 1.006 ± 0.01
122 | TGTGGGCTGT | 1.02 ± 0.015
123 | GCTGTTCCCG | 1.04 ± 0.071
124 | GGGGGAAAAA | 0.998 ± 0.059
125 | AGTCATGAAA | 1.11 ± 0.12
126 | TTAGTATTCT | 0.992 ± 0.031
127 | AATAAGTGGT | 0.989 ± 0.023
128 | AACTTTTAGT | 0.99353 ± 0.00074
129 | GTTATGGGTG | 0.983 ± 0.029
130 | TGGGGAAAGC | 0.983 ± 0.014
131 | TTAGGTGGCG | 1.04 ± 0.018
132 | CATAGTAGAA | 0.978 ± 0.034
133 | GGGCAAAGGG | 0.999 ± 0.041
134 | TGTTTTAATT | 0.99 ± 0.021
135 | CTGGGGTAGG | 1.04 ± 0.018
136 | TGTTTTAAGT | 0.999 ± 0.036
137 | CGGTTTGCAG | 0.972 ± 0.043
138 | TTAGTAGTTT | 0.976 ± 0.015

Row | Sequence | switch fluorescence ratio
139 | ATGTGGGGCC | 0.995 ± 0.042
140 | GAATGTATGG | 1.04 ± 0.049
141 | CGTATAGTAG | 0.958 ± 0.02
142 | TTTGACGCAT | 1.6 ± 0.67
143 | CAAAAGTCGA | 1.04 ± 0.031
144 | AATTTAGGGA | 1 ± 0.0089
145 | CCGGACCACG | 1.01 ± 0.029
146 | ATTTACCGGA | 1.04 ± 0.052
147 | GGGCGGGGGA | 1.06 ± 0.079
148 | GGTTATTATG | 0.978 ± 0.039
149 | ATCATGCTGT | 0.9976 ± 0.0017
150 | ACGACTTCTT | 0.989 ± 0.019
151 | CGGGGATGGC | 0.979 ± 0.011
152 | ATTAAATTAG | 1.04 ± 0.051
153 | GAGAAGGGAC | 1.03 ± 0.046
154 | TAGTGGGGAC | 0.9677 ± 0.0027
155 | TTTGTTACCG | 0.995 ± 0.012
156 | TTAATTGCTT | 1.01 ± 0.043
157 | GAGGGTAGAG | 1.01 ± 0.042
